Assay results reported in paper PMC2690642 (Journal of neurochemistry, 2008).

B1: regulatory (R) domain of the N-methyl-D-aspartate receptor NR2A subunit, NR2A(23-389) (domain or fragment)
chain: not shown
B2: regulatory (R) domain of the N-methyl-D-aspartate receptor NR2B subunit, NR2B(27-390) (domain or fragment)
chain: not shown
B3: regulatory (R) domain of the N-methyl-D-aspartate receptor NR1 subunit, NR1(19-380) (domain or fragment)
chain: not shown

Key:
SEC = target: the molecule itself; assay: SEC
[1] = target: B1; assay: co-IP
[2] = target: B2; assay: co-IP

Binder	percentage of the monomer form (SEC)	binding result [1]	binding result [2]
B1	73%		
B2	71%		
B3	37%	binds	binds
